We go through 125 sequences from the supplement of paper PMC9112550, “Optimization of the antimicrobial peptide Bac7 by deep mutational scanning” (BMC Biology, 2022).
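Also: peptides expressed intracellularly from a pBAD plasmid library in pooled LB shake-flask culture, induced with 0.3% L-arabinose, DNA abundance read by NGS, three biological replicates, DESeq2 with apeglm shrinkage.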

The data set deals with Escherichia coli TOP10. Nature of the data set: shrunken log2 fold change of peptide-encoding DNA abundance (4.5 h post-induction vs induction); higher = less antimicrobial activity (less host growth inhibition). Particulars: time post-induction: 4.5 h; library: site-saturation at positions 5, 18, 19, 20.
On to RRIRMRPPRLPRPRPRPGEIPRP, for which the “shrunken log2 fold change” value was found to be 0.995.
As for RRIRTRPPRLPRPRPRPYCEPRP, the “shrunken log2 fold change” value is -0.416.
For the sequence RRIRSRPPRLPRPRPRPHKRPRP, the “shrunken log2 fold change” value is 0.0245.
The value for RRIRGRPPRLPRPRPRPNPDPRP was 0.221.
Turning to RRIRIRPPRLPRPRPRPTITPRP, the “shrunken log2 fold change” value was -0.996.
On to RRIRFRPPRLPRPRPRPMFDPRP, for which the “shrunken log2 fold change” value is -0.155.
Take RRIRTRPPRLPRPRPRPSWMPRP: the “shrunken log2 fold change” value is -0.466.
Consider RRIRNRPPRLPRPRPRPEIFPRP, for which the “shrunken log2 fold change” value is -0.0153.
Turning to RRIRLRPPRLPRPRPRPVPWPRP, the “shrunken log2 fold change” value was found to be 0.0255.
RRIRHRPPRLPRPRPRPFRYPRP: the “shrunken log2 fold change” value was -0.737.
In the case of RRIRNRPPRLPRPRPRPPIIPRP it was -0.192; in that of RRIRLRPPRLPRPRPRPWIYPRP, -0.385.
Consider RRIRVRPPRLPRPRPRPMWWPRP, for which the “shrunken log2 fold change” value is -0.0322.
For the sequence RRIRHRPPRLPRPRPRPPVGPRP, the “shrunken log2 fold change” value turned out to be 0.183.
As to RRIRDRPPRLPRPRPRPFSSPRP, the “shrunken log2 fold change” value was -0.0177.
In the case of RRIRIRPPRLPRPRPRPLPLPRP it was 0.0472; in that of RRIRYRPPRLPRPRPRPSQIPRP, -0.766; in that of RRIRKRPPRLPRPRPRPTSNPRP, 0.161.
In the case of RRIRARPPRLPRPRPRPHHCPRP, the “shrunken log2 fold change” value is -0.859.
In the case of RRIRPRPPRLPRPRPRPRQGPRP it was 0.236; in that of RRIRNRPPRLPRPRPRPVYRPRP, -0.815; in that of RRIRWRPPRLPRPRPRPRVCPRP, 0.347.
For RRIRHRPPRLPRPRPRPFWTPRP, the “shrunken log2 fold change” value was -0.766.
RRIRQRPPRLPRPRPRPRVRPRP: the “shrunken log2 fold change” value was 0.329.
As to RRIRLRPPRLPRPRPRPMGFPRP, the “shrunken log2 fold change” value is -0.159.
In the case of RRIRNRPPRLPRPRPRPEMSPRP, the “shrunken log2 fold change” value was -0.0389.
In the case of RRIRHRPPRLPRPRPRPRIYPRP, the “shrunken log2 fold change” value was -0.584.
The value for RRIRARPPRLPRPRPRPTYTPRP was -0.0355; that for RRIRPRPPRLPRPRPRPHVIPRP was -0.617; that for RRIRGRPPRLPRPRPRPDPKPRP was 0.649.
Consider RRIRHRPPRLPRPRPRPLDAPRP, for which the “shrunken log2 fold change” value is -0.148.
With RRIRCRPPRLPRPRPRPPMNPRP, the “shrunken log2 fold change” value was -0.0519.
Turning to RRIRDRPPRLPRPRPRPHLVPRP, the “shrunken log2 fold change” value was -0.0562.
RRIRMRPPRLPRPRPRPFRKPRP: the “shrunken log2 fold change” value was -0.0166.
With RRIRWRPPRLPRPRPRPRPYPRP, the “shrunken log2 fold change” value worked out at 0.0357.
In the case of RRIRRRPPRLPRPRPRPIQYPRP, the “shrunken log2 fold change” value was -0.00028.
RRIRPRPPRLPRPRPRPDRHPRP: the “shrunken log2 fold change” value is -0.31.
In the case of RRIRGRPPRLPRPRPRPRAMPRP it was 0.787; in that of RRIRIRPPRLPRPRPRPLSAPRP, -0.112; in that of RRIRQRPPRLPRPRPRPAFIPRP, -0.239.
Regarding RRIRARPPRLPRPRPRPWESPRP, the “shrunken log2 fold change” value is 0.192.
The value for RRIRYRPPRLPRPRPRPRALPRP was 0.0114.
In the case of RRIRHRPPRLPRPRPRPPIEPRP, the “shrunken log2 fold change” value was -0.809.
For RRIRSRPPRLPRPRPRPLKHPRP, the “shrunken log2 fold change” value is -0.39.
RRIRERPPRLPRPRPRPGWAPRP: the “shrunken log2 fold change” value came out at 0.487.
In the case of RRIRTRPPRLPRPRPRPMQYPRP, the “shrunken log2 fold change” value was -0.0442.
The value for RRIRDRPPRLPRPRPRPWLNPRP was -0.277.
In the case of RRIRDRPPRLPRPRPRPIDWPRP, the “shrunken log2 fold change” value worked out at 0.129.
In the case of RRIRLRPPRLPRPRPRPQNPPRP it was -0.263; in that of RRIRPRPPRLPRPRPRPYGGPRP, -0.153; in that of RRIRHRPPRLPRPRPRPRWDPRP, 0.127.
Consider RRIRYRPPRLPRPRPRPEPWPRP, for which the “shrunken log2 fold change” value was found to be 0.00405.
The value for RRIRNRPPRLPRPRPRPCGTPRP was -0.139; that for RRIRHRPPRLPRPRPRPFETPRP was 0.0877; that for RRIRHRPPRLPRPRPRPFNWPRP was -0.194.
Turning to RRIRVRPPRLPRPRPRPMSRPRP, the “shrunken log2 fold change” value was 0.0217.
Consider RRIRCRPPRLPRPRPRPWNTPRP, for which the “shrunken log2 fold change” value is -0.575.
With RRIRGRPPRLPRPRPRPCMVPRP, the “shrunken log2 fold change” value is 0.304.
For RRIRCRPPRLPRPRPRPWFAPRP, the “shrunken log2 fold change” value was -0.183.
On to RRIRYRPPRLPRPRPRPVRWPRP, for which the “shrunken log2 fold change” value stood at 0.164.
On to RRIRWRPPRLPRPRPRPHADPRP, for which the “shrunken log2 fold change” value came to 0.708.
For RRIRFRPPRLPRPRPRPEVNPRP, the “shrunken log2 fold change” value is 0.0557.
Regarding RRIRQRPPRLPRPRPRPIQLPRP, the “shrunken log2 fold change” value is -0.333.
As for RRIRTRPPRLPRPRPRPELMPRP, the “shrunken log2 fold change” value was determined as 0.0498.
RRIRPRPPRLPRPRPRPSQFPRP: the “shrunken log2 fold change” value was -0.0669.
Regarding RRIRGRPPRLPRPRPRPHDAPRP, the “shrunken log2 fold change” value stood at 0.00554.
For the sequence RRIRKRPPRLPRPRPRPVLCPRP, the “shrunken log2 fold change” value was 0.241.
Take RRIRKRPPRLPRPRPRPRDDPRP: the “shrunken log2 fold change” value was determined as 0.365.
On to RRIRHRPPRLPRPRPRPSDRPRP, for which the “shrunken log2 fold change” value was -0.125.
With RRIRIRPPRLPRPRPRPVTSPRP, the “shrunken log2 fold change” value was -0.0328.
Take RRIRRRPPRLPRPRPRPRGPPRP: the “shrunken log2 fold change” value was found to be 0.871.
In the case of RRIRDRPPRLPRPRPRPAMLPRP, the “shrunken log2 fold change” value is 0.278.
On to RRIRRRPPRLPRPRPRPSSYPRP, for which the “shrunken log2 fold change” value is -0.0808.
As for RRIRNRPPRLPRPRPRPYRPPRP, the “shrunken log2 fold change” value is -0.379.
Turning to RRIRRRPPRLPRPRPRPWKRPRP, the “shrunken log2 fold change” value is -0.0441.
On to RRIRFRPPRLPRPRPRPQQHPRP, for which the “shrunken log2 fold change” value was -0.38.
With RRIRTRPPRLPRPRPRPMEKPRP, the “shrunken log2 fold change” value was -0.00136.
With RRIRSRPPRLPRPRPRPQKWPRP, the “shrunken log2 fold change” value is -0.0746.
RRIRARPPRLPRPRPRPADWPRP: the “shrunken log2 fold change” value is 0.984.
With RRIRARPPRLPRPRPRPWIMPRP, the “shrunken log2 fold change” value is -0.332.
With RRIRCRPPRLPRPRPRPNCKPRP, the “shrunken log2 fold change” value is -0.138.
The value for RRIRPRPPRLPRPRPRPEQNPRP was -0.199; that for RRIRHRPPRLPRPRPRPGKAPRP was -0.0115; that for RRIRTRPPRLPRPRPRPGTPPRP was 0.0833.
Consider RRIRERPPRLPRPRPRPCWCPRP, for which the “shrunken log2 fold change” value was -0.0114.
As to RRIRKRPPRLPRPRPRPCSCPRP, the “shrunken log2 fold change” value was determined as 0.018.
For RRIRTRPPRLPRPRPRPTPIPRP, the “shrunken log2 fold change” value amounted to 0.139.
Turning to RRIRMRPPRLPRPRPRPYGIPRP, the “shrunken log2 fold change” value is -0.0497.
For the sequence RRIRHRPPRLPRPRPRPDCVPRP, the “shrunken log2 fold change” value was -0.383.
For RRIRVRPPRLPRPRPRPSCRPRP, the “shrunken log2 fold change” value was -0.0227.
Regarding RRIRKRPPRLPRPRPRPGLGPRP, the “shrunken log2 fold change” value is 0.406.
As to RRIRPRPPRLPRPRPRPLFGPRP, the “shrunken log2 fold change” value stood at 0.142.
Take RRIRGRPPRLPRPRPRPPYSPRP: the “shrunken log2 fold change” value is -0.084.
The value for RRIRMRPPRLPRPRPRPIMQPRP was 0.0343; that for RRIRNRPPRLPRPRPRPNCAPRP was -0.123.
Regarding RRIRFRPPRLPRPRPRPTAAPRP, the “shrunken log2 fold change” value came to 0.569.
In the case of RRIRLRPPRLPRPRPRPCCWPRP it was 0.41.
Regarding RRIRQRPPRLPRPRPRPHAEPRP, the “shrunken log2 fold change” value is -0.0176.
For the sequence RRIRNRPPRLPRPRPRPYACPRP, the “shrunken log2 fold change” value is -0.167.
As for RRIRLRPPRLPRPRPRPPPMPRP, the “shrunken log2 fold change” value came out at 0.966.
Take RRIRPRPPRLPRPRPRPHVHPRP: the “shrunken log2 fold change” value is -0.254.
Turning to RRIRYRPPRLPRPRPRPQSQPRP, the “shrunken log2 fold change” value is -0.133.
As for RRIRRRPPRLPRPRPRPAFQPRP, the “shrunken log2 fold change” value is 1.62.
Turning to RRIRIRPPRLPRPRPRPTNAPRP, the “shrunken log2 fold change” value is -0.0508.
Turning to RRIRARPPRLPRPRPRPRLRPRP, the “shrunken log2 fold change” value was found to be 0.514.
RRIRNRPPRLPRPRPRPTMEPRP: the “shrunken log2 fold change” value came to 0.274.
Consider RRIRGRPPRLPRPRPRPVVYPRP, for which the “shrunken log2 fold change” value was 0.268.
For RRIRSRPPRLPRPRPRPEQSPRP, the “shrunken log2 fold change” value came to 0.22.
In the case of RRIRTRPPRLPRPRPRPIYSPRP, the “shrunken log2 fold change” value was -0.571.
Turning to RRIRCRPPRLPRPRPRPWALPRP, the “shrunken log2 fold change” value came to 0.0591.
The value for RRIRERPPRLPRPRPRPSHDPRP was -0.118; that for RRIRNRPPRLPRPRPRPNLEPRP was 0.0441.
In the case of RRIRQRPPRLPRPRPRPTFRPRP it was -0.232; in that of RRIRYRPPRLPRPRPRPLKIPRP, -0.134.
In the case of RRIRCRPPRLPRPRPRPVVTPRP it was -0.0488; in that of RRIRKRPPRLPRPRPRPIVEPRP, 0.00111; in that of RRIRWRPPRLPRPRPRPRKIPRP, 0.491.
Regarding RRIRGRPPRLPRPRPRPFGWPRP, the “shrunken log2 fold change” value came to 0.741.
Turning to RRIRNRPPRLPRPRPRPWITPRP, the “shrunken log2 fold change” value is -0.0261.
In the case of RRIRDRPPRLPRPRPRPTRGPRP it was 0.67; in that of RRIRRRPPRLPRPRPRPAHFPRP, 0.0399.
In the case of RRIRHRPPRLPRPRPRPAFKPRP it was -0.0994; in that of RRIRERPPRLPRPRPRPYLNPRP, -0.326; in that of RRIRDRPPRLPRPRPRPSKHPRP, -0.263.
RRIRRRPPRLPRPRPRPVHQPRP: the “shrunken log2 fold change” value is 0.208.
